Data reported in PMC1931443, “Vertebrate DM domain proteins bind similar DNA sequences and can heterodimerize on DNA”.

Columns and labels:
[1] = biological target: T1, DMRT3 (mouse, UniProt Q80WT2 1-476); assay: EMSA supershift; primarily monomer; 9E10; EMSA: 10 mM Tris-HCl pH 7.9, 100 mM KCl, 10% glycerol, 5 mM MgCl2, 1 mM spermidine, 0.075% Triton-X-100, 1 mM DTT, 1 ug BSA, 0.1 ug dI-dC, 75 ng plasmid DNA, 0.5 ng probe, 4 ul IVT mix in 20 ul, on ice 10 min; gel at 4 C; IVT with 20 uM ZnSO4; conditions: protein: ivt; tags: N-terminal Myc; label: 32P (Klenow fill-in); 5' overhang 4 nt both ends (filled in on labeling)
[2] = biological target: T2, DMRT5 (mouse, UniProt A2A9A2 1-531); assay: competition; 40-fold excess; tolerated; EMSA: 10 mM Tris-HCl pH 7.9, 100 mM KCl, 10% glycerol, 5 mM MgCl2, 1 mM spermidine, 0.075% Triton-X-100, 1 mM DTT, 1 ug BSA, 0.1 ug dI-dC, 75 ng plasmid DNA, 0.5 ng probe, 4 ul IVT mix in 20 ul, on ice 10 min; gel at 4 C; IVT with 20 uM ZnSO4; conditions: protein: ivt; tags: N-terminal Myc; 5' overhang 4 nt both ends
[3] = biological target: T2, DMRT5; assay: EMSA supershift; 9E10; EMSA: 10 mM Tris-HCl pH 7.9, 100 mM KCl, 10% glycerol, 5 mM MgCl2, 1 mM spermidine, 0.075% Triton-X-100, 1 mM DTT, 1 ug BSA, 0.1 ug dI-dC, 75 ng plasmid DNA, 0.5 ng probe, 4 ul IVT mix in 20 ul, on ice 10 min; gel at 4 C; IVT with 20 uM ZnSO4; conditions: protein: ivt; tags: N-terminal Myc; label: 32P (Klenow fill-in); 5' overhang 4 nt both ends (filled in on labeling)
[4] = biological target: T1, DMRT3; assay: EMSA supershift; mainly dimer; 9E10; EMSA: 10 mM Tris-HCl pH 7.9, 100 mM KCl, 10% glycerol, 5 mM MgCl2, 1 mM spermidine, 0.075% Triton-X-100, 1 mM DTT, 1 ug BSA, 0.1 ug dI-dC, 75 ng plasmid DNA, 0.5 ng probe, 4 ul IVT mix in 20 ul, on ice 10 min; gel at 4 C; IVT with 20 uM ZnSO4; conditions: protein: ivt; tags: N-terminal Myc; label: 32P (Klenow fill-in); 5' overhang 4 nt both ends (filled in on labeling)
[5] = biological target: DMRT4 (mouse, UniProt Q8CFG4 1-490); assay: EMSA; complex fails to enter gel (possible aggregate); EMSA: 10 mM Tris-HCl pH 7.9, 100 mM KCl, 10% glycerol, 5 mM MgCl2, 1 mM spermidine, 0.075% Triton-X-100, 1 mM DTT, 1 ug BSA, 0.1 ug dI-dC, 75 ng plasmid DNA, 0.5 ng probe, 4 ul IVT mix in 20 ul, on ice 10 min; gel at 4 C; IVT with 20 uM ZnSO4; conditions: protein: ivt; tags: C-terminal Myc; chain copies: 2; label: 32P (Klenow fill-in); 5' overhang 4 nt both ends (filled in on labeling)
DMRT4, sequence (Q8CFG4 whole entry): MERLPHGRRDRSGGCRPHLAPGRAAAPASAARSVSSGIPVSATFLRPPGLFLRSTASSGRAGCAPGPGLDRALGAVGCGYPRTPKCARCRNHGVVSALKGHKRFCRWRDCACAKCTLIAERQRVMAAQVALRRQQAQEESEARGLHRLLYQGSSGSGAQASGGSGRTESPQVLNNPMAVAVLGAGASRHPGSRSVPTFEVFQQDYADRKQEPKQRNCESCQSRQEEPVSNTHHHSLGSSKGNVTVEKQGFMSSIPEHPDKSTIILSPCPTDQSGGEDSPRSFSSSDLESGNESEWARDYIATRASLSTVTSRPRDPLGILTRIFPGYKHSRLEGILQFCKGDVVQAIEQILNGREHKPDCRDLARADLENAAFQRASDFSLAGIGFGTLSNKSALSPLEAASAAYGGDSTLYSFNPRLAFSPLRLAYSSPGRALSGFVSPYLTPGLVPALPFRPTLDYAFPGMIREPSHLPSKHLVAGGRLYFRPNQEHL

T2 sequence (A2A9A2 whole entry): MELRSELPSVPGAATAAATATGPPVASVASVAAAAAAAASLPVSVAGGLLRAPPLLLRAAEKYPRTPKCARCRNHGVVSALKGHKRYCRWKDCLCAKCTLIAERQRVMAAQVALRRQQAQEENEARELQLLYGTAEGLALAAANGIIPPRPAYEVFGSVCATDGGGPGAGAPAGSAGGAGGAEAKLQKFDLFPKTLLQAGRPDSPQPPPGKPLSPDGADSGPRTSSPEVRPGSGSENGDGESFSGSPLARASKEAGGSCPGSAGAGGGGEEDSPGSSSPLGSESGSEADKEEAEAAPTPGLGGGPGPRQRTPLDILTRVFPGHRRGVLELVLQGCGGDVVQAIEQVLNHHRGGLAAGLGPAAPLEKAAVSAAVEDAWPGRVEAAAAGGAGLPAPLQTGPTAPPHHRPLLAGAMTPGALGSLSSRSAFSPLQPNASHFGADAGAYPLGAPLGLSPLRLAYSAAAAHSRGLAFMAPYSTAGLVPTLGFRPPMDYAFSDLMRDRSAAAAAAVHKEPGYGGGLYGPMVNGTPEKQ
T1 sequence (Q80WT2 whole entry): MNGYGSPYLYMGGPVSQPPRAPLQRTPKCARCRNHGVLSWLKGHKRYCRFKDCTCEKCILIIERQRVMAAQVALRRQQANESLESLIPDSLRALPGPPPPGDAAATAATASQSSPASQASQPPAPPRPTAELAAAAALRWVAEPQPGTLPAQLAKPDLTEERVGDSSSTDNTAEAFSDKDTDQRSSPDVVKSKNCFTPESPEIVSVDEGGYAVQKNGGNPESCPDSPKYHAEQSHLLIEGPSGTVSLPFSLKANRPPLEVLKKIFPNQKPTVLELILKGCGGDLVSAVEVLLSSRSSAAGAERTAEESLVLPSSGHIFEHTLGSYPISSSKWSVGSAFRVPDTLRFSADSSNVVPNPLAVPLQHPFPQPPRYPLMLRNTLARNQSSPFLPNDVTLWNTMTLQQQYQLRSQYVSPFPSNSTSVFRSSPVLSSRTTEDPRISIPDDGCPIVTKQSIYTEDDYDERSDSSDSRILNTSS

B1: 3RE (dsDNA)
DNA 1: TCGAGAACAATGTAACAATTTCGCCC
DNA 2: TCGAGGGCGAAATTGTTACATTGTTC
binding result [1]: binds

B2: DMRT1 site -8G (dsDNA)
DNA 1: TCGAGATGTGATACATTGTTGC
DNA 2: TCGAGCAACAATGTATCACATC
binding result [2]: binds

B3: 1RE (Figure 2) (dsDNA)
DNA 1: TCGAGCCCGCAACAATGTTGCAAATC
DNA 2: TCGAGATTTGCAACATTGTTGCGGGC
binding result [3]: binds
binding result [4]: binds
binding result [5]: binds
